Results taken from PMC9482650, “Quantitative fragmentomics allow affinity mapping of interactomes” (Nature Communications, 2022).

Key:
Experiment in all cases: holdup assay
Parameters in all cases: key: below the threshold = too weak to quantify, mostly under pKd 3.1 to 4
APBA1_2, Q02410 = target: T1, APBA1_2, Q02410
T1 sequence (Q02410 742-832, limits assumed, looked up): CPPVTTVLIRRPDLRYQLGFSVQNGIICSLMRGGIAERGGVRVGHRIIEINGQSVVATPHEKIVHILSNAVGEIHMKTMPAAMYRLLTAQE

CASK, O14936 = target: CASK, O14936
Sequence of CASK, O14936 (O14936 487-570): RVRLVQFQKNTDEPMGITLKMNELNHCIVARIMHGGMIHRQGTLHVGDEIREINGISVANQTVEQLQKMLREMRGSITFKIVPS

DLG1_1, Q12959 = target: DLG1_1, Q12959
DLG4_3, P78352 = target: DLG4_3, P78352
Sequence of DLG4_3, P78352 (P78352 306-403): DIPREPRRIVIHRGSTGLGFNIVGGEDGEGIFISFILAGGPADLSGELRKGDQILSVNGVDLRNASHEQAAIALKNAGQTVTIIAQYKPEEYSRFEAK

FRMPD2_1, Q68DX3 = target: FRMPD2_1, Q68DX3
Sequence of FRMPD2_1, Q68DX3 (Q68DX3 770-861): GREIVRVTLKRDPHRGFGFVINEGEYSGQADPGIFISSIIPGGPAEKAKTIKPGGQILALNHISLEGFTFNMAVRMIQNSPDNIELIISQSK

FRMPD2_2, Q68DX3 = target: FRMPD2_2, Q68DX3
Sequence of FRMPD2_2, Q68DX3 (Q68DX3 944-1038): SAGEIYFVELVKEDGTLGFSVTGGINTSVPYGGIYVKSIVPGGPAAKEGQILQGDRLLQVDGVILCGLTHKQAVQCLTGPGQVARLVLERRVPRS

FRMPD2_3, Q68DX3 = target: FRMPD2_3, Q68DX3
Sequence of FRMPD2_3, Q68DX3 (Q68DX3 1073-1166): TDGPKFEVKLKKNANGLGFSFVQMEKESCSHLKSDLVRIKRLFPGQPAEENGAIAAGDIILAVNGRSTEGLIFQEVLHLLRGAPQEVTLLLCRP

GIPC2, Q8TF65 = target: GIPC2, Q8TF65
Sequence of GIPC2, Q8TF65 (Q8TF65 112-203): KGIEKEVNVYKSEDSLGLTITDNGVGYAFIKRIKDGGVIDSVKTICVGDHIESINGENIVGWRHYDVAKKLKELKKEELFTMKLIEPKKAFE

GORASP1, Q9BQQ3 = target: GORASP1, Q9BQQ3
Sequence of GORASP1, Q9BQQ3 (Q9BQQ3 1-208): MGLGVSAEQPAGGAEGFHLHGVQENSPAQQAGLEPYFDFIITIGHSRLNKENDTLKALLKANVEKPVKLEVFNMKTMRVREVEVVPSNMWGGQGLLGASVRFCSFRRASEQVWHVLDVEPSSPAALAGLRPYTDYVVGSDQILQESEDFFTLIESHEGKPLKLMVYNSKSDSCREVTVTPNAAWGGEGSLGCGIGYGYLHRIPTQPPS

GRIP1_3, Q9Y3R0 = target: T2, GRIP1_3, Q9Y3R0
T2 sequence (Q9Y3R0 247-346, limits assumed, looked up): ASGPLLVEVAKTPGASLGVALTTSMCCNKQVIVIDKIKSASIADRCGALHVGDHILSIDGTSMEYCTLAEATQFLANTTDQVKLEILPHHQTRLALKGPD

GRIP1_4, Q9Y3R0 = target: T3, GRIP1_4, Q9Y3R0
T3 sequence (Q9Y3R0 467-571, limits assumed, looked up): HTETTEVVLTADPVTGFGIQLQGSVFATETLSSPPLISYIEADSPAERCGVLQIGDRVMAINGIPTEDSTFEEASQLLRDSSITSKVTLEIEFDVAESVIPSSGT

GRIP2_6, Q9C0E4 = target: GRIP2_6, Q9C0E4
Sequence of GRIP2_6, Q9C0E4 (Q9C0E4 648-740): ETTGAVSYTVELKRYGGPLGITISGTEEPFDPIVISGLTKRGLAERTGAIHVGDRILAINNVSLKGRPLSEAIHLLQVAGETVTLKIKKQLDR

GRIP2_7, Q9C0E4 = target: GRIP2_7, Q9C0E4
Sequence of GRIP2_7, Q9C0E4 (Q9C0E4 934-1023): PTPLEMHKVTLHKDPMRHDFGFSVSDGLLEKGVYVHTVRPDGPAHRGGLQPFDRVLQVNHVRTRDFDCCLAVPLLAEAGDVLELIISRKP

Inadl_2, Q8NI35 = target: Inadl_2, Q8NI35
Sequence of Inadl_2, Q8NI35 (Q8NI35 238-335): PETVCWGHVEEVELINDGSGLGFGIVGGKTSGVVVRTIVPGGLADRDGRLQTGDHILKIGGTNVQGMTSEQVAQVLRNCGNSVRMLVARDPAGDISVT

LAP2, Q96RT1 = target: LAP2, Q96RT1
Sequence of LAP2, Q96RT1 (Q96RT1 other isoform, or with tags, fused parts or gaps): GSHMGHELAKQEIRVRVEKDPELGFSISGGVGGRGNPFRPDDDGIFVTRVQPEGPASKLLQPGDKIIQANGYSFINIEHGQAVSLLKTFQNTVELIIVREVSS

LIN7B, Q9HAP6 = target: T4, LIN7B, Q9HAP6
T4 sequence (Q9HAP6 88-185, limits assumed, looked up): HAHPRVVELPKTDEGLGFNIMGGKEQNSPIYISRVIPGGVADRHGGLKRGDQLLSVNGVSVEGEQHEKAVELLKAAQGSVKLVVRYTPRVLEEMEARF

LNX1_1, Q8TBB1 = target: LNX1_1, Q8TBB1
Sequence of LNX1_1, Q8TBB1 (Q8TBB1 261-371): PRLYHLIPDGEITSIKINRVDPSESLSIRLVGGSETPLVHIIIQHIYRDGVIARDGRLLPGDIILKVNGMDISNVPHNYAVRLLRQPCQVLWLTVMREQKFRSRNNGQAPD

LNX1_3, Q8TBB1 = target: LNX1_3, Q8TBB1
Sequence of LNX1_3, Q8TBB1 (Q8TBB1 500-596): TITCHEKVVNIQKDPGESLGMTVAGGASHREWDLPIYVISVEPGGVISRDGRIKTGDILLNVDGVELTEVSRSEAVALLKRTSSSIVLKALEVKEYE

MAGI1_2, Q96QZ7 = target: MAGI1_2, Q96QZ7
Sequence of MAGI1_2, Q96QZ7 (Q96QZ7 456-580): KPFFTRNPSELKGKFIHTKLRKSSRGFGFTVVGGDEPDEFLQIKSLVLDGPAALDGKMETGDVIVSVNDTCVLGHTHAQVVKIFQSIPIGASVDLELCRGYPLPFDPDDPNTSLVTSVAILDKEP

MAGI2_4, Q86UL8 = target: MAGI2_4, Q86UL8
Sequence of MAGI2_4, Q86UL8 (Q86UL8 772-865): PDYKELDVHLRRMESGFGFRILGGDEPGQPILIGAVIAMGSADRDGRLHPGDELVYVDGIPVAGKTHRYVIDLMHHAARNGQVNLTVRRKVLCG

MPP6, Q9NZW5 = target: T5, MPP6, Q9NZW5
T5 sequence (Q9NZW5 125-219, limits assumed, looked up): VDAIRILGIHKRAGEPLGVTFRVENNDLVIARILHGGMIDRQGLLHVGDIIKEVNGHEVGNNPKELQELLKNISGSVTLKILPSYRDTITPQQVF

MPP7, Q5T2T1 = target: T6, MPP7, Q5T2T1
T6 sequence (Q5T2T1 134-230, limits assumed, looked up): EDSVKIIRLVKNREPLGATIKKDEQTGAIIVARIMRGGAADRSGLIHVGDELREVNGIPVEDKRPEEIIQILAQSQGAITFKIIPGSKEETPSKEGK

NHERF3_4, Q5T2W1 = target: T7, NHERF3_4, Q5T2W1
T7 sequence (Q5T2W1 373-468, limits assumed, looked up): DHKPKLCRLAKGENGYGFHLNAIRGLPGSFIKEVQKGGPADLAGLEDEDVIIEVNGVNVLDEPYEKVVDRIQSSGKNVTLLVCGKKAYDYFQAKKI

PCLO, Q9Y6V0 = target: T8, PCLO, Q9Y6V0
T8 sequence (Q9Y6V0 4491-4600, limits assumed, looked up): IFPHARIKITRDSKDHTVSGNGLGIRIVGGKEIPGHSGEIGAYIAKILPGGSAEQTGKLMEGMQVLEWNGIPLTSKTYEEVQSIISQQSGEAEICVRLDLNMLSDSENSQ

PDZD2_2, O15018 = target: T9, PDZD2_2, O15018
T9 sequence (O15018 329-429, limits assumed, looked up): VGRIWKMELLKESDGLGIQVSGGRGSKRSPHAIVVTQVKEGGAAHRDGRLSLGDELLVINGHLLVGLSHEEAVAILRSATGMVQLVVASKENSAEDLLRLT

PDZD7_3, Q9H5P4 = target: T10, PDZD7_3, Q9H5P4
T10 sequence (Q9H5P4 857-944, limits assumed, looked up): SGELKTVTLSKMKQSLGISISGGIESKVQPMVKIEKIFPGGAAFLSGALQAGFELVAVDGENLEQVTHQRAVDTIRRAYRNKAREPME

RADIL, Q96JH8 = target: T11, RADIL, Q96JH8
T11 sequence (Q96JH8 971-1071, limits assumed, looked up): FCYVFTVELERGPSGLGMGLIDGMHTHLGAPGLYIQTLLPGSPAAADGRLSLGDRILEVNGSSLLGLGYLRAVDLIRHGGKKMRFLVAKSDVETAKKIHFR

[1] = plain residues with an end cap or a label only (N-terminal biotin on a linker: ahx)
[2] = plain residues with an end cap or a label only (N-terminal biotin on a linker: ttds)

## GYDWGPATDL [TJP3, O95049]
APBA1_2, Q02410; [1]
  pKd: 4.17
CASK, O14936; [1]
  pKd: below the threshold
DLG1_1, Q12959; [1]
  pKd: below the threshold
DLG4_3, P78352; [1]
  pKd: below the threshold
FRMPD2_1, Q68DX3; [1]
  pKd: below the threshold
FRMPD2_2, Q68DX3; [1]
  pKd: 3.54
FRMPD2_3, Q68DX3; [1]
  pKd: below the threshold
GIPC2, Q8TF65; [1]
  pKd: 3.73
GORASP1, Q9BQQ3; [1]
  pKd: below the threshold
GRIP1_3, Q9Y3R0; [1]
  pKd: below the threshold
GRIP1_4, Q9Y3R0; [1]
  pKd: below the threshold
GRIP2_6, Q9C0E4; [1]
  pKd: below the threshold
GRIP2_7, Q9C0E4; [1]
  pKd: below the threshold
Inadl_2, Q8NI35; [1]
  pKd: below the threshold
LAP2, Q96RT1; [1]
  pKd: 3.73
LIN7B, Q9HAP6; [1]
  pKd: below the threshold
LNX1_1, Q8TBB1; [1]
  pKd: 4.84
LNX1_3, Q8TBB1; [1]
  pKd: below the threshold
MAGI1_2, Q96QZ7; [1]
  pKd: below the threshold
MAGI2_4, Q86UL8; [1]
  pKd: 3.49
MPP6, Q9NZW5; [1]
  pKd: below the threshold
MPP7, Q5T2T1; [1]
  pKd: below the threshold
NHERF3_4, Q5T2W1; [1]
  pKd: below the threshold
PCLO, Q9Y6V0; [1]
  pKd: below the threshold
PDZD2_2, O15018; [1]
  pKd: 4.46
PDZD7_3, Q9H5P4; [1]
  pKd: 4.14
RADIL, Q96JH8; [1]
  pKd: below the threshold

## EVVHTPETSV [SLC16A3, O15427]
APBA1_2, Q02410; [2]
  pKd: 4.09
CASK, O14936; [2]
  pKd: below the threshold
DLG1_1, Q12959; [2]
  pKd: 3.87
DLG4_3, P78352; [2]
  pKd: 3.94
FRMPD2_1, Q68DX3; [2]
  pKd: below the threshold
FRMPD2_2, Q68DX3; [2]
  pKd: 4.5
FRMPD2_3, Q68DX3; [2]
  pKd: below the threshold
GIPC2, Q8TF65; [2]
  pKd: below the threshold
GORASP1, Q9BQQ3; [2]
  pKd: below the threshold
GRIP1_3, Q9Y3R0; [2]
  pKd: below the threshold
GRIP1_4, Q9Y3R0; [2]
  pKd: below the threshold
GRIP2_6, Q9C0E4; [2]
  pKd: below the threshold
GRIP2_7, Q9C0E4; [2]
  pKd: below the threshold
Inadl_2, Q8NI35; [2]
  pKd: below the threshold
LAP2, Q96RT1; [2]
  pKd: 3.81
LIN7B, Q9HAP6; [2]
  pKd: 3.61
LNX1_1, Q8TBB1; [2]
  pKd: below the threshold
LNX1_3, Q8TBB1; [2]
  pKd: below the threshold
MAGI1_2, Q96QZ7; [2]
  pKd: below the threshold
MAGI2_4, Q86UL8; [2]
  pKd: 3.55
MPP6, Q9NZW5; [2]
  pKd: below the threshold
MPP7, Q5T2T1; [2]
  pKd: below the threshold
NHERF3_4, Q5T2W1; [2]
  pKd: below the threshold
PCLO, Q9Y6V0; [2]
  pKd: below the threshold
PDZD2_2, O15018; [2]
  pKd: 4.26
PDZD7_3, Q9H5P4; [2]
  pKd: 4.45
RADIL, Q96JH8; [2]
  pKd: below the threshold
